B1: library; numbered along this chain (parent)
chain: MAAAAAAAAEQQSSNGPVKKSMREKAVERRSVNKEHNSNFKAGYIPIDEDRLHKTGLRGRKGNLAICVIILLFILAVINLIITLVIWAVIRIGPNGCDSMEFHESGLLRFKQVSDMGVIHPLYKSTVGGRRNENLVITGNNQPIVFQQGTTKLSVENNKTSITSDIGMQFFDPRTQNILFSTDYETHEFHLPSGVKSLNVQKASTERITSNATSDLNIKVDGRAIVRGNEGVFIMGKTIEFHMGGNMELKAENSIILNGSVMVSTTRLPSSSSGDQLGSGDWVRYKLCMCADGTLFKVQVTSQNMGCQISDNPCGNTH

Variants of: B1
Assay: SGCB cell-surface expression functional score (HA stain, bin4 vs bin1, normalised to synonymous) (log10 ratio); higher = more cell-surface SGCB (functional)
Experimental: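 Deep mutational scan of full-length human SGCB (YFP-SGCB-HA, NNN codon sublibraries A-F) delivered by lentivirus at low MOI into ADG-HEK293 cells stably expressing SGCA, SGCD and SGCG. YFP-positive cells were stained for surface HA on unpermeabilized cells and FACS-sorted into bins. The functional score is log10(frequency in high bin 4 / frequency in low bin 1), normalised per chunk so that synonymous variants have mean 0 and SD 0.5. Scores are the median over codons and over duplicate biological replicates; scores below -0.5 are called non-functional. Scale: negative means deleterious.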

SGCB cell-surface expression functional score (log10): each site, then its substitutions
D115: E -0.54; S -1.55; R -1.16; T -1.39; M -1.51; V -0.75; C -1.36; F -1.29; K -0.97; I -0.89; A -1.73; Q -0.98; P -1.39; N -0.27; G -1.39; H -0.53; W -1.77; Y -0.03; L -1.17
L108: S -0.5; W -0.215; V -0.08; Y -1.74; T 0; R -1.09
V118: R -0.19; A -0.02; Q -0.24; L -0.05; I 0.32; G -0.31; E -0.21; F -0.06; P -0.73; N -0.97; K 0.64; T 0.29; C 0.74; Y -0.32; W 0.32; S 0.19; M -0.05; H -0.23; D -0.11
F110: N -0.99; K -0.57; Y -0.99; W -1.08; D -1.65; E -1.42; S -1.18; A -1.33; G -1.18; H -0.19; C -1.22; P -1.35; Q -1.06; V -0.47; R -1.05; L -0.53; T -1.1; M -0.98; I -0.31
L122: T 0.13; H 0.55; W 0.1; Y 0.31; R 0.49; N -0.12; A -0.03; E 0.35; D 0.28; M 0.05; C 0.06; G 0.45; F -0.12; P -1.07; S 0.31; Q 0.48; K -0.12; I 0.65; V -0.14
P121: A -0.17; D -0.76; S 0.12; T -0.36; Y -0.96; F 0.33; W -0.71; V 0.5; I -0.16; M -0.6; K -0.78; Q -0.72; L 0.04; N 0.38; E -1.17; H -0.14; R -1; G -0.47; C 0.36
M116: A -1.24; F 0.29; L 0.08; R -1.55; P -1.45; S -1.38; H -1.7; I -1.03; Y -1.63; C -1.02; W -1.47; N -1.13; G -1.48; T -0.8; Q -1.26; V -1.02; E -1.47; D -0.59; K -1.21
S114: Y -1.47; I 0.12; R -1.39; T -0.37; M -0.25; G -0.7; W -0.55; A 0.55; N -0.49; L -1.15; D -1.53; V -0.22; C 0.01; P -0.77; H -1.62; F -0.89; E -0.49; Q -1.66; K -1.22
G117: P -1.21; R -0.86; L -1.42; V -1.36; C -0.28; S -0.38; A -0.7; Q -1.06; E -0.94; I -1.22; F -1.46; D -0.32; Y -1.35; W -1.14; K -1.66; M -0.46; T -0.96; H -0.9; N 0.02
K111: D -0.84; L -0.35; R -0.25; P -1.47; F -0.85; C 0.01; W 0.03; A -1.04; E -0.76; T -0.37; Q -1; H -0.03; V -0.57; G -1.08; I -0.61; M -0.31; S -1.07; Y -0.7; N -0.45
H120: V -0.04; P -1.27; A -0.12; D -0.59; W 0.14; I 0.16; C 0.35; M -0.63; S 0.28; G -1.08; Y 0.03; Q -0.03; K -0.13; T 0.44; L 0.39; N 0.06; R 0.35; F 0.08; E -0.09
Y123: H -0.35; N 0.64; V -0.18; C 0.25; W 0.33; M -0.24; G -0.11; E 0.65; R -0.37; S 0.68; D -0.53; T -0.12; I -0.3; K -0.02; A 0.29; P 0.1; Q 0.06; L 0.02; F 0.2
R109: V 0.1; H -0.61; A -0.33; E -0.02; S -0.09; M -0.41; D -0.93; Y -0.17; P -1.41; L -0.1; I -0.04; K -0.59; T 0.26; G -0.81; N -1.22; Q -0.31; C -0.5; F -0.2; W 0.09
S125: N -0.2; R -1.09; Y -0.79; G 0.56; H -0.37; T -0.3; Q -0.7; A -0.08; D 0.46; V -0.88; M 0.21; P -0.99; C 0.13; I -1.02; E -0.08; K -0.93; F -0.45; W -0.51; L -1.2
Q112: A -0.21; M -0.17; P -1.14; F -0.97; K -0.1; N -1.32; I 0.03; V -0.18; R 0.07; W -0.83; D -0.16; H 0.02; G -0.59; E -0.38; S -0.17; Y -0.7; T -0.79; L -0.73; C -0.81
V113: C -0.61; Q -0.79; R -0.07; N -0.49; S -0.27; W -1.16; F -0.38; Y -0.42; G -0.67; A -0.4; D -0.21; I 0.04; H -0.84; K 0.32; T -0.1; M -0.22; P 0.22; L -0.01; E -0.5
K124: T 0.31; M -0.6; Q 0.27; R 0.3; E -0.5; G 0.08; F -0.08; Y 0.18; N 0.4; V 0.39; H -0.35; A -0.41; S 0.11; L 0.07; W -0.36; P 0.61; I 0.1; D -0.66; C 0.21
I119: V -0.21; W -1.04; F -1.3; A -0.49; G -0.96; Q -1.26; M 0.58; N -1.15; R -0.88; L -0.19; Y -1.14; D -0.97; E -1.16; K -1.36; S -1.47; H -1.49; T -0.97; P -0.94; C -0.49
T126: A 0.13; D -0.63; F 0.32; E 0.37; C 0.11
